Experiments:
[1] = target: recombinant human wild-type SHMT2 (isoform 3) (human); assay: SEC; recombinant proteins purified by nickel affinity chromatography, separated by gel filtration, fractions analysed by western blot
[2] = target: T1, Flag-tagged wild-type SHMT2 expressed in SHMT2-knockout HCT116 cells (human), P34897; assay: cross-linking; cell lysates treated with or without 0.025% glutaraldehyde, western blot with anti-SHMT2; SHMT2-knockout HCT116 cells expressing Flag-tagged WT or K95Q, and SIRT3-knockout or control HCT116 cells; settings: remark: other sources report otherwise
T1 chain: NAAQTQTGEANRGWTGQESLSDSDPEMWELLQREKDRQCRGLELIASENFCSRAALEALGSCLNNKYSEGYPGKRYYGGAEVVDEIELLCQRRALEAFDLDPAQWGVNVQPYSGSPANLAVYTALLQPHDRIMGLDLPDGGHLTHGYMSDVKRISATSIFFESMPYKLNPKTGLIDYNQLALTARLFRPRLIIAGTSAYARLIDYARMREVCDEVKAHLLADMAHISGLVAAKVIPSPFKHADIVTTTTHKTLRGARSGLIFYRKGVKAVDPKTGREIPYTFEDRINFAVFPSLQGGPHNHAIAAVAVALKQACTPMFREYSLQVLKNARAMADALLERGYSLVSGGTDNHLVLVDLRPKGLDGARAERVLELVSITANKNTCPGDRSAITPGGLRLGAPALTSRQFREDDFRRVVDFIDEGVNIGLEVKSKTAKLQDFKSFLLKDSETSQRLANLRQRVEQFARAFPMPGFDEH

[3] = target: T2, serine hydroxymethyltransferase 2 (SHMT2), endogenous in HCT116 cells (human (endogenous in HCT116)), P34897; assay: as above; settings: remark: other sources report otherwise
T2 chain: T1 chain

recombinant human wild-type SHMT2 (isoform 3) (enzyme)
stoichiometry N [1]: 4

B1: Flag-tagged wild-type SHMT2 expressed in SHMT2-knockout HCT116 cells, P34897 30-504 (natural protein)
chain: T1 chain
stoichiometry N [2]: 4

B2: serine hydroxymethyltransferase 2 (SHMT2), endogenous in HCT116 cells, P34897 30-504 (natural protein)
chain: T1 chain
stoichiometry N [3]: 4
